Publication PMC10482962, “Structural and functional analysis of aquaporin-2 mutants involved in nephrogenic diabetes insipidus” (Scientific Reports, 2023)

Key:
[1] = target: the molecule itself; experiment: SEC; size-exclusion chromatography of the purified protein immediately prior to reconstitution into liposomes; peak integrals quantified in % of the total population to estimate the oligomeric states
[2] = size-exclusion chromatography; details: glycan lost; control: wild-type AQP2 (same construct)

Protein	stoichiometry N [1]	oligomerisation [2]
human aquaporin-2 (AQP2), truncated after residue 242 (domain or fragment, UniProt P41181 1-242, looked up, aquaporin-2 (AQP2), human, C-terminal truncation at P242; the construct used for the structure PDB 4NEF; His-tag removed by TEV protease before SEC; also called wild-type AQP2; hAQP2; source: Pichia pastoris X33, purified (IMAC, TEV cleavage, second IMAC, SEC); not shown: His8, N-terminal, cleaved) MWELRSIAFSRAVFAEFLATLLFVFFGLGSALNWPQALPSVLQIAMAFGLGIGTLVQALGHISGAHINPAVTVACLVGCHVSVLRAAFYVAAQLLGAVAGAALLHEITPADIRGDLAVNALSNSTTAGQAVTVELFLTLQLVLCIFASTDERRGENPGTPALSIGFSVALGHLLGIHYTGCSMNPARSLAPAVVTGKFDDHWVFWIGPLVGAILGSLLYNYVLFPPAKSLSERLAVLKGLEP	4	
human aquaporin-2 (AQP2) T125M, truncated after residue 242 (domain or fragment, UniProt P41181 1-242, looked up, aquaporin-2 (AQP2), human, C-terminal truncation at P242, with the recessive NDI patient mutation T125M; Mutation identified in patients with autosomal recessive NDI; same construct limits as m1; source: Pichia pastoris X33, purified (IMAC, TEV cleavage, second IMAC, SEC); not shown: His8, N-terminal, cleaved) MWELRSIAFSRAVFAEFLATLLFVFFGLGSALNWPQALPSVLQIAMAFGLGIGTLVQALGHISGAHINPAVTVACLVGCHVSVLRAAFYVAAQLLGAVAGAALLHEITPADIRGDLAVNALSNSMTAGQAVTVELFLTLQLVLCIFASTDERRGENPGTPALSIGFSVALGHLLGIHYTGCSMNPARSLAPAVVTGKFDDHWVFWIGPLVGAILGSLLYNYVLFPPAKSLSERLAVLKGLEP	4	
aquaporin-2 (AQP2): T125M (protein) parent chain: MWELRSIAFSRAVFAEFLATLLFVFFGLGSALNWPQALPSVLQIAMAFGLGIGTLVQALGHISGAHINPAVTVACLVGCHVSVLRAAFYVAAQLLGAVAGAALLHEITPADIRGDLAVNALSNSTTAGQAVTVELFLTLQLVLCIFASTDERRGENPGTPALSIGFSVALGHLLGIHYTGCSMNPARSLAPAVVTGKFDDHWVFWIGPLVGAILGSLLYNYVLFPPAKSLSERLAVLKGLEPDTDWEEREVRRRQSVELHSPQSLPRGTKA		no change
